# Measured values published in the nanobody polyreactivity screen of Harvey et al. (2022).
# Assay: yeast display, Sf9 membrane polyspecificity reagent, FACS + sequencing; frameworks hold sequencing errors
# Procedure, shortened: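 Galactose induction of a Saccharomyces cerevisiae BJ5465 synthetic nanobody display library ran 36–48 hours. The cells were then stained for 1 hour at 4 °C with 10% biotinylated, detergent-solubilized Sf9 membrane reagent, pulled down on streptavidin microbeads and FACS-sorted into low and high (top ~1%) gates on expression and reagent-binding fluorescence. Labels for polyreactivity follow the gate of origin.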
row,Sequence,polyreactivity (PSR sort gate)
1,QVQLVESGGGLVQAGGSLRLSCAASGYIFVRNAMGWYRQAPGKERELVAAISGSGGSTYYADSVKGRFTISRDNAKNSVYLQMNSLKPEDTAVYYCAARRYGYRYDQPYSNDYWGLGTQVTVSS,low polyreactivity
2,QVQHVESGGGLVQAGGSLRLSCAASGRTFDRNAMGWYRQPPGKERELVAGITRSGDSTYADSVKVRFTISRDNAKNTVYLQMNSLKPVDTAVYYCNKEGTIGGTRGYWGQGTQVTVSS,low polyreactivity
3,QVHLVESGGGLVQAGGSLRLSCAASGIIFYRYAMGWYRQAPGKESELVAAITRRTASTYYADSVKGRFTLSRDNAKNTVYLPLNSLKPEDSAVYYCSAYSPYSHIVDNFDYWGQGTQVTVSS,low polyreactivity
4,QDKLVESGGGLVQAGGSLRLSCAASGSILGGYAMGWNRPAPGKAREFVAAISRRGASTFYADSVKGRFTISRDNAKNTVYLQMNCLKPEDTAVYYCNARAYGRIDGHSATFGYWGQGTQVTVSS,high polyreactivity
5,QVQHVESGGGLVQAGGSLRLSCPASGIIIYQYALGSYRQAPGKERELVAAISSGVNTYYADSVKGRFTISRDNAKNTVYLQMNSLKPEDTAVYYCAARLTFGYLRSKFYYWGQGTQVTVSS,high polyreactivity
6,QVQLVESGGGLVQAGGSLRLSCAASGSTFGYYAMGWYRQAPGKERELVAAITGSGGCTYYADSVKGRFTISRDNAKNTVYLQMNSLKPEDTAVYYCATPTKFVRDDYWGQGTQVTVSS,low polyreactivity
7,QVQLVESGGGLVQAGGSLRLSCAASGRIFRYNTIGWYRQAPGKERELVADITSSDSSTNYADSVKGRFTISRDTAKNTVYLQMNSLKPEDTAVYYCNAVIYFKFDWGQGTQVTVSS,low polyreactivity
8,QVQLVESGGGLVQAGGSLRLSCAASGRTFWYNAMGWYRQAPGKERELVAVISSGAITYYADSVKGRFTISRDNAKNTVYLQMNSLKPEDTAVYYCNAQRRGTYYWGQGTQVTVSS,high polyreactivity
9,QVQRVESGGGLVQAGGSLRLSCAASGLIFRKYAMGWYRQEPGKERELVAAISLRGVSTYYADSVKGRFTISRDNAKNTVYLQMNRLKPEDTAVYYCAADVYYPLGYGLDYWGQGYQVTVSS,low polyreactivity
10,QVQLVESGGGLVQGGGSLRLSCAASGSISDVYAMGWYRQAPGKERELVAANTSGASTYYADSVKGRFTISRDNAKNTVYLQMNSLKPEDTAVYYCAADSDSQWGMDYWGQGTQVTVSS,low polyreactivity
11,QVQLVESGGGLVQAGGILRLSCAASGSIFTRYAMGWYRQAPGKEREFVAAITWRGGRTSYADSVKGRFTISRDKAKNTVYLQMNSLKPEDTAVYYCNRRYPYRTYDYWGQGTQVTVSS,high polyreactivity
12,QVQLVESGGGLVQAGGSLRLSCAASGSTFYRYAMGWYRQAPGKERELVAAISRNGGSTYYSDSVKGRFTISRDNAKNTVYLQMNSLKPEDTAVYYCAAVWPYGSRVAPMDYWGQGTQVTVSS,high polyreactivity
13,QVQLVESGGGLVQAGGSLRLSCAASGRIFTSYAMGWYRQAPGKERELVAAINRGGSTYYADSVKGRFTISRDNAKNTVYLQMNSLKPEDTAVYYCAAGTRSRAPYYRTIVDTYGYWGQGTQVTVSS,low polyreactivity
14,QVQLVESGGGLVQAGGSLRLSCAASGRTFVNNAMGWYRQAPGKERELVASIRYIGGSTYYADSVKGRFTISRDNEKNTVYLQMNSLKPEDTAVYYCAALAGRRPYDYWGQGTQVTVSS,high polyreactivity
15,QVQLVESGGGLVQAGGSLRLSCAASGFTFPVNAMGWYRQAPGKERELVAAITSGGRTNYADSVKGRFTISRDNAKNTVYLQMNSLKPEDTAVYYCAAKFGYYWNSRTSGYWGQGTQVTVSS,high polyreactivity
16,QVQLVESGGGLVQAGGSLRISCAASGFIFHVYAMGWYRQAPGKERELVAAISSGGSTYYADSVKGRFTISRDNAKNTVYLQMNSLKPEDTAVYYCNVARSRYRYRYDYWGQGTQVTVSS,high polyreactivity
17,QVQLVESGGGLVQAGGSLGLSCAASGLIFRKYAMGWYRQAPGKERELVATINRSGGSTYYADSVKGRFTISRDNAKNTVYLQMNSLKPEATAVYYCATDRLSYGYKPGYTFYYWEQGTQVTVSS,high polyreactivity
18,QVQLVESGGGLLQAGGSLRLSCAASGIIFRGYSMGWYRPAPGKERELVASITRRGGSTRYADSVKGRFTISRDNAKNTVYLQMNSLKPEDTPVYYCAAVGVGKTSTAYGYWGQGTQVNVSS,high polyreactivity
19,QVQLVESGGGLVQAGGSLRLSCAASGLTFRYYTMGWYRQAPGKERELVAAITKSGSSTYYADSVKGRFTISRDNAKNTVYLQMNSLKPEDTAVYYCAKDSNHWGQGTQVTVSS,high polyreactivity
20,QVQLVESGGGLVQAGGSLRLSCAASGRTFELYAMGWYRQAPGKERELVAAIRQSDVSTYYADSVKGRFTISRDNAKNTVYLQMNSLKPEDTAVYYCAARNRYRRRYYYWGQGTQVTVSS,high polyreactivity
21,QVQLVESVGGLVQAGGSLRLSCAASGSTFKYYAMGWYRPAPGKERELVAAITYSGGRTYYADSVKGRFTISRDNAKNTVYLQMNSLNPEDTAGYYCAARRGREDDYWGQGTQVTVSS,low polyreactivity
22,QVQLVESGGGLVQAGGSLRLSCAASGRIFDRNAMGWYRQAPGKERELVATISSGDTTDYADSVKGRFTISRDNAKNTVYLQMNSLKPEDTAVYYITIYNYWGQGTQVTVSS,low polyreactivity

row,Sequence,polyreactivity (PSR sort gate)
1,QVQLVESGGGLVQAGGSLRLSCAASGSTYENAMGWYRQAPGKERELVAVISRSGGSTYYADSVKGRFTISRDNAKNTVYLQMNSLNPEDTAVYYCATVYSAWSWVHGYYVAMDYWGQGTQVTVSS,high polyreactivity
2,QVQLVESGGGLVQAGGSLRLSWAASGITFATKAMGWYRQAPGKERELVAGITSGGSTYYADSVKGRFTISRDNAKNTVYLQMNSLQPEDTAVYYCANRYHYWYGTGYDYWGQGTQVTVSS,low polyreactivity
3,QVQLVESGGGLVQAGGSLRLSCAAYGSIFYFNAMGRYRQAPGKERELVASITSGGSTNYADSVKGRFTISRDNAKNTVYLQMNSLKPEETEVYYCNARFPYLSRWLVRGLASYDYWGQGTQVTVSS,low polyreactivity
4,QVQLVESGGGLVQAGGRLRLSCAATGRTFLPNAMGWYRQAPGKERELVASINGDGTTNYADSVKGRFTISRDNAKNTVYLQMNSLKPEDTAVYYCAADGYGGYYRGTYYTVYYWGQGTQVTLSS,low polyreactivity
5,QVQLVESGGGLVQAGGSLRLSCAASGITLTKNAMGWYRQAPGKERELVAGITRGSRTNYADSVKGRFTISRDNAKNSVYLQMNSLIPEDTAVYYCAASYWPYRGPVGGSKMYFWGQGTQVTVSS,high polyreactivity
6,QVQLVESGGGLVHAGGSLRLSCAASGSNFRYNAMGWYRQAPGKEREFYADSVKGRFTISRDNAKKTVYLQMNSLKPEDTAVYYCNATWYLWYWHDMDYWGQGTQGTVSS,low polyreactivity
7,QVQLVESGGGLVQAGGSLRLSCAASGSIITWYTMGWYRQATGKERELVASISSGGTTKYADSVKGRFTISRDNAKNTVYLQMNCLKPEDTAVYYCAAEYIAYYGTGTYYGLDYWGQGTQVTVSS,low polyreactivity
8,QVQLLESCGGLDQAGGSLRLSCAASGSTFGTNAMGWYRKAPGKERELVAAITSSGGSTNYADSVKWRFTISLDNANNSVYFQMNCLKPEDTAVYYCNDVSYSTTYGGDSWGQGTQVTVSS,low polyreactivity
9,QVQLVESGGGLVQAGGSLRLSCAASGFTFDNYVMGWYSQAPGKERELVAAISKSGTSTYYADSVKGRFTISRDNAKNTVYLQMNSLKPEDTAVYYCAAALPGYGDYYYWGQGTQVTVSS,high polyreactivity
10,QVQLVESGGGLVQAGGSLRLSCAASGNIFGFYTMGWNRQAPGKERELVAAIRSRGGSTNYADSVKGRFTISRDTAKNTVYLQMNSLKPEDTAVYYCNKDGTWLARAVTYADFDYWGQGTQVTVSS,low polyreactivity
11,QVQLVESGGGLVQAGGSLRLSCAASGSIFRGNVMGWYRQAPGKERELVAAISWSGGSTYYADSVKGRFTISRDNAKNTVYLQMNSLKPEDTAVYYCAVRVWGSARGMDYWGQGTQVTVSS,high polyreactivity
12,QVQLVESGGGLVQAGGSLRLSCAASGRTFKGYAMGWYRQAPGKERELVAAISYRGGSTYYADSVKGRFTISRDNAKNTVYLQMNSLKPEDTAVYYCAARWNRGRYDYWGQGTQVTVSS,high polyreactivity
13,QVQLVESGGGLVQAGGSLRLSCAASGSTFYTYAMGWYRQAPGKERELVAAISNRGGSTRYADSVKGRFTISRDNAKNTVYLQMNSLKPEDTAVYYCAARVTQTGYYWGQGTQVTVSS,high polyreactivity
14,QVQLVESGGGLVQAGGSLRLSCAASGRTFYKNAMGWYRQAPGKEREFVASISVSGGRTYYADSVKGRFTISRDNAKNTVYLQMNSLKQEDTAVYYCNARASPLSQRDYWGQGTQVTVSS,low polyreactivity
15,QVQLVESGGGLVQAGGILRLSCAASGRIFGSYAMGWYRQAPGKERELVAVITKRGDSTYYADSVKGRFTISRDNAKNTVYLQMNSLKPEDTAVYYCNARVYPGYSFWAVFGYDYWGQGTQVTVSS,low polyreactivity
16,QVQLVESGGGLVQAGGSLRLSCAASGRIFVRNGMGWYRQAPGKERELVAAISASGGNTYYADSVKGRFTISRDNAKNTVYLQMNSLKPEDTAVYYCATTRRVPGEYWGQGTQVTVSS,high polyreactivity
17,QVQLVESGGGLVQAGGSLRLSCAASGSIFYYYAMGWYRQAPGKEMELVAAIDSGGSTYYAHSVKGRFTISRDNAKNTVYLQMNSLKPEDTAVYYCAADTYWFVYYGYDYWGQGTQVTVSS,low polyreactivity
18,QVQLVESGGGLVKAGGSLRLSCAASAWYAMGWYRQAPGKEREFVAAITFSGSSTYYADSVKGRFTISRDNAKNTVYLQMNSLKPEVTAVYYCNADWWEWGQGTQVTVSS,low polyreactivity
19,QVQLVESGGGLVQAGGSLRLSCAASGRTFTWYAMGWYRQAPGKERELVAAISKSGGSTYYADSVKGRFTISRDNAKNTVYLQMNSLKPEDTAVYYCNADFYGYFLGYGYWGQGTQVTVSS,low polyreactivity
20,QVQLVESGGGLVQAGGSLRLSCAASGSTFYNAMGWYRQAPGKERELVAAITRSGGSTYYADSVKGRFTISRDNAKNTVYLQMNSLKPEDTAVYYCAAKSIIRPSAPRRDDMDYWGQGTQVTVSS,low polyreactivity
21,QVQLVESGGGLVQAGGSLRLSCAASGSIFRVYAMGRYRQAPGKERELVATISGSAGRTYYADSVKGRFTISRDNAKNTVYLQMNSLKPEDTAVYYCAARWYKEYYWGQGTQVTVSS,high polyreactivity
